Data taken from US20240350646A1, “METHODS AND COMPOSITIONS FOR DELIVERY TO AND ACROSS THE BLOOD BRAIN BARRIER” (NUtech Ventures, priority 2021, published 2024).
Where two headings read alike, the source gives them in different places.

Assays:
[1] = middle aged humans of around 40 years of age; cited from earlier work
human claudin-1 = target: T1, human claudin-1 (Homo sapiens, UniProt O95832); experiment: Microscale thermophoresis (MST) binding
T1 construct: made in house
T1 sequence (O95832 1-211): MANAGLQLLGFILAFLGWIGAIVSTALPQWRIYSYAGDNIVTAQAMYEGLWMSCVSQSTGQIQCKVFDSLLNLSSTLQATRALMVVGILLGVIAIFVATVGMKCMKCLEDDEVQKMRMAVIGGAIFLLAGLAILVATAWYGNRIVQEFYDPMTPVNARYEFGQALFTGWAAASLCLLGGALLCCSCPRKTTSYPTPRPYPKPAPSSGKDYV
Protocol: Human claudin-1 was expressed and purified as reported previously (Vecchio & Stroud, 2019, PNAS USA, 116:17817-24). MST measurements were performed using a Monolith instrument (NanoTemper Technologies). For experiments with human claudin-1, the assay buffer contained 10 mM Tris HCl, pH 8.0, 100 mM NaCl, 4% glycerol, and 0.04% n-Dodecyl-β-D-Maltopyranoside (β-DDM). NPs and peptides were labeled with AF647 prior to MST analysis as described above. For the binding experiments, the concentration of human claudin-1 was varied from 2.2-73,500 nM and the AF647-labeled C1C2-NP was fixed at 70 nM, while the AF647 labeled NPs and AF647 labeled C1C2 peptide were fixed at 1 and 0.3 μM, respectively. Binding of the AF647 labeled C1C2-NP to human claudin-3, -4, and -9 were tested using 0.4-14000 nM, 0.8-28000 nM, and 0.6-20000 nM, respectively; with the AF647 labeled C1C2-NP fixed at 70 nM. This assay buffer was similar, except β-DDM was replaced with 0.1% n-Undecyl-β-D-Maltopyranoside (beta-UDM). In order to check non-specific binding of β-DDM micelles to the AF647 labeled C1C2-NP, the concentration of beta-DDM was varied from 0.03-900 μM and the concentration of the AF647-labeled C1C2-NP was fixed at 1 μM. A similar experiment was performed wherein the concentration of beta-UDM was varied from 0.3-10,000 μM and the concentration of AF647-labeled control NP was fixed at 1 μM. The non-specific binding of human claudins 4 and 9 to the NP was examined by varying the concentrations of human claudins 4 and 9 from 0.7-20,100 nM and 0.8-31,100 nM, respectively. The human claudin sub-dilutions were mixed with the NPs or peptides and loaded in standard monolith NT.115 capillary tubes for measurement. All experiments were conducted at 23° C. using the nano-red channel of the Monolith instrument and the data were analyzed by using either Monolith analysis software or Graph Pad Prism, version 9 (Graph Pad Software, San Diego, California).

Molecule	K^trans, hippocampus [1]	Binding to human claudin-1 (in words) (human claudin-1)	Binding to human claudin-1 (in words) (human claudin-1; listed as C1C2 peptides)
CNC[C@H](O)[C@@H](O)[C@H](O)[C@H](O)CO.CNC[C@H](O)[C@@H](O)[C@H](O)[C@H](O)CO.O=C([O-])CN(CCN(CC(=O)[O-])CC(=O)O)CCN(CC(=O)O)C(COCc1ccccc1)C(=O)[O-].[Gd+3] (stereo not drawn) [MultiHance]	~0.001 min⁻¹	–	–
C1C2 peptide: Peptide SSVSQSTGQIQSKVDSLLNLNSTQATR (SEQ ID NO: 6) purchased from Genscript; binds first extracellular loop of claudin-1 (Ac-SSVSQSTGQIQSKVDSLLNLNSTQATR-NH2)	–	little binding	no binding
